Reference: the supplement of paper PMC10567573

B1: ZMYND11 (parent)
chain: YCSIKCQQEHWHAEHKRTCRRKR

Variants of: B1
Test: protein stability index of a GFP-peptide fusion (GPS, HEK-293T) (PSI 1-6); higher = more stable
Details: c terminus: native
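Also: lentivirally expressed fusions sorted by FACS into six bins by GFP to DsRed ratio, PSI derived from sequencing read proportions per bin multiplied by bin number.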

Protein stability index: each site, then its substitutions
R23: C 2.04 | P 3.21 | Q 3.2 | K 2.11 | S 2.64 | A 2.28 | M 2.15 | N 2.09 | W 4.23 | V 1.26 | F 1.58 | T 2.26 | Y 1.41 | L 2.2 | G 5.07 | D 1.86 | E 2.77 | H 2.26
C19: L 2.83 | F 2.24 | N 2.21 | H 2.71 | P 3.4 | G 2.71 | T 2.77 | E 2.75 | V 2.48 | D 3.46 | M 2.41 | A 2.84 | W 1.98 | I 2.72 | R 2.76 | Y 3.63 | K 2.3 | S 2.82 | Q 2.19
R17: S 2.77 | Q 2.39 | Y 1.82 | T 2.25 | V 2.55 | W 1.56
K22: V 2.15 | S 3.04 | Y 1.53 | I 2.37 | L 2.02 | H 1.74 | C 2.6 | T 1.91 | N 1.37 | F 2.13 | M 1.55 | G 2.33 | E 2.41 | Q 2.64 | D 1.85 | R 1.79 | P 1.94 | A 1.83 | W 2.97
R20: W 1.98 | I 1.35 | T 3.02 | V 2.8 | A 2.33 | Q 1.51 | H 2.2 | C 2 | K 1.72 | Y 2.28 | S 1.99 | F 3.4 | D 1.76 | L 2.17 | N 2.02 | G 2.65 | P 1.89
T18: K 2.84 | W 2.16 | S 2.56 | P 2.08 | E 2.56 | M 1.91 | N 3.18 | C 2.85 | H 2.5 | A 2.36 | Y 2.45 | Q 3.08 | V 1.61 | L 1.27 | F 2.47 | D 2.95 | I 2.76 | R 2.29 | G 2.39
R21: H 1.97 | Y 2.2 | D 1.96 | I 2.99 | Q 2.04 | V 2.61 | P 1.52 | E 2.43 | L 2.2 | W 1.94 | N 1.98 | S 3.06 | T 2.41 | A 2.2 | M 2.4 | K 2.92 | C 2.15 | F 2.45 | G 2.84
